# Experimental data reported in patent US20240400618A1 (GRIFOLS DIAGNOSTIC SOLUTIONS, published 2024).
# Read-outs that look alike come from different tables or passages of the source.
# Tests used:
# [1] = molecular target: T1, pxAM-FLS-SSAS-TB-His (SARS-CoV-2, UniProt P0DTC2 15-1213)
# [2] = molecular target: T1, pxAM-FLS-SSAS-TB-His; remark: listed apart in the source
# [3] = molecular target: India, Delta, pxENB9-FLS-B.1.617.2 (SARS-CoV-2, UniProt P0DTC2 15-1213)
# [4] = molecular target: US/CA, Epsilon, pxENB9-FLS-B.1.427 (SARS-CoV-2, UniProt P0DTC2 15-1213)
# [5] = molecular target: Brazil, Gamma, pxENB9-FLS-P.1 (SARS-CoV-2, UniProt P0DTC2 15-1213)
# [6] = molecular target: T1, pxAM-FLS-SSAS-TB-His; remark: listed apart in the source
binder,measurement,setting,value
pxEBN4-ACE2-AAA-His (receptor) QSTIEEQAKTFLDKFNHEAEDLFYQSSLASWNYNTNITEENVQNMNNAGDKWSAFLKEQSTLAQMYPLQEIQNLTVKLQLQALQQNGSSVLSEDKSKRLNTILNTMSTIYSTGKVCNPDAPAECLLLEPGLNEIMANSLDYNERLWAWESWRSEVGKALRPLYEEYVVLKNEMARANHYEDYGDYWRGDYEVNGVDGYDYSRGQLIEDVEHTFEEIKPLYEHLHAYVRAKLMNAYPSYISPIGCLPAHLLGDMWGRFWTNLYSLTVPFGQKPNIDVTDAMVDQAWDAQRIFKEAEKFFVSVGLPNMTQGFWENSMLTDPGNVQKAVCHPTAWDLGKGDFRILMCTKVTMDDFLTAHHEMGHIQYDMAYAAQPFLLRNGANEGFHEAVGEIMSLSAATPKHLKSIGLLSPDFQEDNETEINFLLKQALTIVGTLPFTYMLEKWRWMVFKGEIPKDQWMKKWWEMKREIVGVVEPVPHDETYCDPASLFHVSNDYSFIRYYTRTLYQFQFQEALCQAAKHEGPLHKCDISNSTEAGQKLFNMLRLGKSEPWTLALENVVGAKNMNVRPLLNYFEPLFTWLKDQNKNSFVGWSTDWSPYADGGGSHHHHHHHH,Kd,[1],0.13 nM
same,Kd,[2],0.524 nM
same,Kd,[3],2.55 nM
same,Kd,[4],1.3 nM
same,Kd,[5],0.00159 nM
same,Kd,[6],5.62 nM
